What all share (experiment): live cell staining, flow cytometry, transfected HEK293
Test [1] concerns the target T1, rTF (rat TF) (rat, UniProt P42533 29-252).
Test [2] concerns the target T2, hTF (human Tissue Factor construct) (human, UniProt P13726 33-251).
T2 construct: also called human TF

For test [3], the target named is T3, hTF_N171H_T197K (human, UniProt P13726 33-251).
T3 chain: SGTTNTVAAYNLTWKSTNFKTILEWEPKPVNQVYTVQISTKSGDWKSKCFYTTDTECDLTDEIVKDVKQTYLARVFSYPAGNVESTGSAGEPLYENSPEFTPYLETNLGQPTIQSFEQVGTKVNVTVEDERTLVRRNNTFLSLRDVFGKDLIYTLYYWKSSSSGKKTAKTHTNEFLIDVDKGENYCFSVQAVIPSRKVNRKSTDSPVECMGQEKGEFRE

In test [4] the target is r141-194_h (rat/human chimera, UniProt P42533 29-252).
Test [5] has as its target h159-219_r (human/rat chimera).
For test [6], the target named is T4, h1-107_r (human/rat chimera).
T4 chain: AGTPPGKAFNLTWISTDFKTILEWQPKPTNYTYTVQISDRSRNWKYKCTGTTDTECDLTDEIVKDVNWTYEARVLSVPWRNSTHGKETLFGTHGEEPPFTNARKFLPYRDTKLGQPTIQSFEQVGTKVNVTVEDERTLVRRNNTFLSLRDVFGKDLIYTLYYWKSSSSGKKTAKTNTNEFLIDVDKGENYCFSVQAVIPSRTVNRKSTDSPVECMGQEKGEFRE

The target of test [7] is T1, rTF (rat TF). The source holds these as a separate data set.
Test [8] has as its target T5, h1-77_r (human/rat chimera).
T5 construct: Human TF ECD with residues 1-77 replaced by rat segment

Like-named read-outs stand apart in the source and are kept apart here.

B1: 39A (antibody, V domains shown)
VH: QVQLVQSGAEVKKPGSSVKVSCKASGGTFSSNAIGWVRQAPGQGLEWMGSIIPIIGFANYAQKFQGRVTITADESTSTAYMELSSLRSEDTAVYYCARDSGYYYGASSFGMDVWGQGTTVTVSS
VL: EIVMTQSPATLSVSPGERATLSCRASQSVSSNLAWYQQKPGQAPRLLIYGASTRATGIPARFSGSGSGTEFTLTISSLQSEDFAVYYCEQYNNLPLTFGGGTKVEIK
notes: Human IgG (detected with anti-human IgG-Fc)
For the molecule B1, the “percent antibody binding to TF construct relative to hTF” value worked out at 0% in test [1]; 100% in test [2]; 94% in test [3]; 0% in test [4]; 141% in test [5]; 0% in test [6]. In addition, the “percent antibody binding to TF construct relative to hTF” value in test [7] and in test [8] was 0% in each case.

(Values after US20250361322A1 (ICONIC THERAPEUTICS, published 2025).)
